Laboratory results from patent US20240092876A1 (priority 2020, published 2024).

What was measured:
[1] = target: N2_A_Leningrad_134_17_57 (influenza A virus); assay: flow cytometry on NA-expressing cells
[2] = target: N2 neuraminidase from A/Washington/01/2007 (Influenza A virus A/Washington/01/2007); assay: flow cytometry on NA-expressing cells

B1: FNI19-v3 (antibody, V domains shown)
VH: QVQLVQSGAEVKKPGSSVKVSCKASEGTFNKYTISWVRQAPGQGLEWMGGIIPISGIANYAQKFQGRVAITADESTTTAYMELSSLRSEDSAVYYCATAVSDYFNRDLGWEDYYFPFWGQGTLVTVSS
VL: EIVMTQSPATLSVSPGARATLFCRASRSVSDNLAWYQQKPGQAPRLLIFGASTRATGVPARFSGSGSGTQFTLTISSLQSEDFAVYYCQHYNIWPPWTFGQGTKVEIK
[1]
  MFI normalized vs wt: 1.04
[2]
  MFI normalized vs wt: 0.83
